The record followed here is the supplement of paper PMC10724198.

± gives the standard deviation of the averaged measurements.
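Note: PSI is a weighted mean of sequencing reads over stability bins, variants kept only with over 10 reads, mCherry proximal and sfGFP distal, peptide attached via GGGS linker.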

This data set has as its system Saccharomyces cerevisiae. As to the kind of experiment: protein stability index of tFT-peptide fusion (C-terminal peptide) (PSI (0-1 scale)); higher = more stable (slower turnover). The note with it: genetic background: wild type; temperature: 30 C.
For PVALYFIREFSP, the protein stability index is 0.699 ± 0.013.

PVAVSQPNGPKD had a protein stability index of 0.633 ± 0.031. To PVCIRSLGTALF belongs 0.675 ± 0.0086; to PVCLHPPPSHTH, 0.737 ± 0.061. The sequence PVDFQSQGECEL showed a protein stability index of 0.695 ± 0.0089. In the case of PVFNDDTIIRNP it was 0.761 ± 0.032; in that of PVFPPPAPTPPT, 0.647 ± 0.046; in that of PVINPSCIVMMW, 0.65 ± 0.04. In the case of PVPPPPPPFSLP it was 0.727 ± 0.032.

As to PVPPPPPPPLPP, the protein stability index stood at 0.6 ± 0.03. In the case of PVPPRSPPRLPF it was 0.6673 ± 0.002; in that of PVPPTPPHPGPL, 0.617 ± 0.059.

PVPRCGLPLSLP registered a protein stability index of 0.685 ± 0.1. PVSALHLSLSCP: the protein stability index was 0.698 ± 0.028. In the case of PVSFPFPISSLS it was 0.701 ± 0.062.

Consider PVSPRLLLRFTL, for which the protein stability index is 0.691 ± 0.14. To PVSVSSFFLSRF belongs 0.767 ± 0.21. PVVRISRLSFFA displayed a protein stability index of 0.674 ± 0.007. For the sequence PWRPTNPADRSV, the protein stability index came out at 0.61 ± 0.1. With PWWSRPAASVGV, the protein stability index is 0.659 ± 0.047.

With PYCVTLTLPFSS, the protein stability index came out at 0.7134 ± 0.0047. For PYEFRLISRNTR, the protein stability index came to 0.669 ± 0.095. To PYFPLRPPSLPI belongs 0.6747 ± 0.0011; to PYFSLFSRRSLN, 0.539 ± 0.02; to PYFVGSGLVVLC, 0.5639 ± 0.0055.

The sequence PYHARPDRSLSG showed a protein stability index of 0.693 ± 0.035. To PYIFLPLGRAGN belongs 0.723 ± 0.076; to PYPVTLSRPTPT, 0.611 ± 0.15; to PYRPYLLPGSLA, 0.632 ± 0.099. In the case of QAANPWQRPFGW it was 0.689 ± 0.087. In the case of QAGARGRRGVRG it was 0.678 ± 0.016; in that of QAGGEYGLKVRW, 0.805 ± 0.033. Turning to QAGKPLYVEMVS, the protein stability index came to 0.609 ± 0.021. In the case of QCLTVPRSAHLP it was 0.607 ± 0.05; in that of QDLLNVSSFTRS, 0.727 ± 0.017. To QEQITKETDLTH belongs 0.663 ± 0.013; to QEREAGVTALIR, 0.707 ± 0.04. In the case of QFEEFKRGFEVA it was 0.722 ± 0.024; in that of QFQRTLCGKRWV, 0.685 ± 0.043. The sequence QFQVWGAPGLKR yielded a protein stability index of 0.711 ± 0.12. In the case of QFVSALVCLSVG it was 0.5534 ± 0.0015.

The sequence QGCAWWGGGAGG had a protein stability index of 0.684 ± 0.038. The sequence QGEKDFRMGSIK displayed a protein stability index of 0.632 ± 0.015. For the sequence QGELHRDVYIVI, the protein stability index came out at 0.6793 ± 0.0013. To QGKPSKWRSGSI belongs 0.646 ± 0.048; to QGRIVSVILLSL, 0.557 ± 0.023. In the case of QHVDRFVGVNRE it was 0.715 ± 0.051; in that of QIESNLGYWGIG, 0.73819 ± 0.00032; in that of QILPVLSKPTWI, 0.736 ± 0.057. To QIQNRVDYRIKL belongs 0.6353 ± 0.0031.

Consider QITYKTLSGINM, for which the protein stability index was found to be 0.703 ± 0.065. In the case of QKEETGGLGGGK it was 0.6609 ± 0.0025; in that of QKERENKHTEIE, 0.645 ± 0.21; in that of QKINKRPTIRQI, 0.603 ± 0.063. As to QKKELQKQKIAK, the protein stability index was 0.683 ± 0.015. In the case of QKKKEKKQKEGD it was 0.678 ± 0.009. QKKKKKNKNDQK displayed a protein stability index of 0.686 ± 0.056.

Sequence QKKKQTDHTNGV gave a protein stability index of 0.684 ± 0.03. In turn, QKKTKRGLTYTS returned a protein stability index of 0.67 ± 0.043. QKPKKKNTTEKQ came in with a protein stability index of 0.689 ± 0.021. In the case of QKRKMIEKEKEK it was 0.768 ± 0.098; in that of QKWKIIRACVGC, 0.606 ± 0.049; in that of QLHTTENHHRRL, 0.792 ± 0.032. In the case of QLPGTVVRYTLF it was 0.6408 ± 0.0041.
